In US20250313602A1:
Values joined by “and” are separate entries in the source; they are usually repeats but may differ in a detail not shown here. Equal values may be shown once.

Target: FcRn
Test: BLI

Sequence of FcRn (main, as listed by the source, chain 1 of 2): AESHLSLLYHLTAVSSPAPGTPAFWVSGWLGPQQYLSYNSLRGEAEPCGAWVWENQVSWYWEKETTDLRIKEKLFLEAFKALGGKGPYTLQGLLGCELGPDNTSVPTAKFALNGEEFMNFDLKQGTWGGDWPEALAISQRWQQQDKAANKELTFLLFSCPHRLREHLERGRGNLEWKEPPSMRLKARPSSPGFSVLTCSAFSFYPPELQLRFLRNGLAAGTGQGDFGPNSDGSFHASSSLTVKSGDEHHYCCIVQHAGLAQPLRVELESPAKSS
Sequence of FcRn (main, as listed by the source, chain 2 of 2): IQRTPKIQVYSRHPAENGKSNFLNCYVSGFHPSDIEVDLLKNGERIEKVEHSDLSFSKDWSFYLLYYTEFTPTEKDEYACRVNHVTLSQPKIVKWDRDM

Herceptin was tested, and the Kd was 2.83 nM and 1.27 nM.
